From paper PMC4169507 come the findings set out here.

The target of this test is fibronectin, P02751. The experiment in a line: bacterial adherence to fibronectin-coated 96-well plates (colony counting). To be noted: chain shown with the change; plates coated with 25 µg/ml of fibronectin; in the presence of arabinose; parent: 100; read off a plot.
Chain of fibronectin, P02751 (P02751 32-2477): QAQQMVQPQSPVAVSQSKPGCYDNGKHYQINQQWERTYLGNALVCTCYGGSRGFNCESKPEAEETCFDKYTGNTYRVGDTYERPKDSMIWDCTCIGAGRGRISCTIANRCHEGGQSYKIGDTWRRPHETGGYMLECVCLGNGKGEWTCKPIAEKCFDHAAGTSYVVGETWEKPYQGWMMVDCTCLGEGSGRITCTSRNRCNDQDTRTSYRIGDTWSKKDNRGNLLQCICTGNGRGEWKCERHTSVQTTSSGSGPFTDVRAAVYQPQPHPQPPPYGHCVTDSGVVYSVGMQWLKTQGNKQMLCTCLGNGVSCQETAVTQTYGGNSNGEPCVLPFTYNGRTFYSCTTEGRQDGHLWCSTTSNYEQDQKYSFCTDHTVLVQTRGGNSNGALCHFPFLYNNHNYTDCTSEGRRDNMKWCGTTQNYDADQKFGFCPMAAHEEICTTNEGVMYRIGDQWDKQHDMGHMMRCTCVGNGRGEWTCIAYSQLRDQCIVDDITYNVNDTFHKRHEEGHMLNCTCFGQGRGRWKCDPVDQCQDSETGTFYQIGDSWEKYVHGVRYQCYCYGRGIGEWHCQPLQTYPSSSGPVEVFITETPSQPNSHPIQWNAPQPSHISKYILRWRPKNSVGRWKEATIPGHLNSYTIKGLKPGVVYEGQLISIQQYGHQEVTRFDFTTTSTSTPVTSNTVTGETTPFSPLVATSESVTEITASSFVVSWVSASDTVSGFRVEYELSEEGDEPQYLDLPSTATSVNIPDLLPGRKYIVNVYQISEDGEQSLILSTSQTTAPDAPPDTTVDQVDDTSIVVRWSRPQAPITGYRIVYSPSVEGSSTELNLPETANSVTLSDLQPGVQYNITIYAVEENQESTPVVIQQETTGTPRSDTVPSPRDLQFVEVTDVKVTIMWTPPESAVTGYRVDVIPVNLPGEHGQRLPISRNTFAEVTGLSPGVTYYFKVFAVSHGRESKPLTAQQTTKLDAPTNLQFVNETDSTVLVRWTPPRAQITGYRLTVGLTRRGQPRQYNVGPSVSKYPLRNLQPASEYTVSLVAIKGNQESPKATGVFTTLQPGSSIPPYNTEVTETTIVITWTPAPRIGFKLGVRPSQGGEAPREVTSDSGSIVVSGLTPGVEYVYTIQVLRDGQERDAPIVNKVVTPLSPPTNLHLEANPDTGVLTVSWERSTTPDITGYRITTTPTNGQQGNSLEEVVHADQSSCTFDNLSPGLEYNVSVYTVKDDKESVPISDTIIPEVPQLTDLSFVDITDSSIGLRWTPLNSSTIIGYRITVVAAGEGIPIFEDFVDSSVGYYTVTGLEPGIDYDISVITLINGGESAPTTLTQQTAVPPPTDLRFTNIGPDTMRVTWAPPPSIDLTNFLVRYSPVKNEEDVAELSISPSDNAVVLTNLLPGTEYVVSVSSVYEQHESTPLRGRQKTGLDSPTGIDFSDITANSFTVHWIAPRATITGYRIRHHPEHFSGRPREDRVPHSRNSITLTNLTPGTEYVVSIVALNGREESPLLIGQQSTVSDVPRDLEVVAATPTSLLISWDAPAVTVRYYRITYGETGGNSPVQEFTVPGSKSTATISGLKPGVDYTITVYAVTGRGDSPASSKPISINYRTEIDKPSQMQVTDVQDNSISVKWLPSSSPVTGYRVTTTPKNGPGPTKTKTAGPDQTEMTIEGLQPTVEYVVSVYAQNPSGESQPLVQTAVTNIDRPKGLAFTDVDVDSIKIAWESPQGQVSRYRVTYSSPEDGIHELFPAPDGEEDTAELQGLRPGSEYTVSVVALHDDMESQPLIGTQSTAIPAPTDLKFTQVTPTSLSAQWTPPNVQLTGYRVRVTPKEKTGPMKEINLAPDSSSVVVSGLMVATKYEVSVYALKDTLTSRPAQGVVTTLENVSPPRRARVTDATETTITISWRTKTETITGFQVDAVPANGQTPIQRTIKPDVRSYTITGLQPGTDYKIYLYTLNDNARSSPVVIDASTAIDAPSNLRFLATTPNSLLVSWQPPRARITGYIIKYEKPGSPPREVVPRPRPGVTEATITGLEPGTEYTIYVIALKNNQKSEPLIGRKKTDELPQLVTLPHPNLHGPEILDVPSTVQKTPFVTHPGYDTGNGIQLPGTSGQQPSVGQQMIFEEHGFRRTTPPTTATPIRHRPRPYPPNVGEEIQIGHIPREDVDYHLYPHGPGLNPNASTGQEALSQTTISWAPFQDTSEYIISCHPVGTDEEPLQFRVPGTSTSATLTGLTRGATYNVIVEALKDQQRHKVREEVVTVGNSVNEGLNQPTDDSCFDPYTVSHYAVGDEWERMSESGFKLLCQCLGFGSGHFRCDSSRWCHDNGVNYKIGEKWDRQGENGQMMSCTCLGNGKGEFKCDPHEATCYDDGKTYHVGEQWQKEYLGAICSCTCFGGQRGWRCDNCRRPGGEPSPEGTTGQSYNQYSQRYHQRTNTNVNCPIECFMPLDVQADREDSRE

B1: AafA, major subunit of AAF/II, on wild type EAEC 042 Q43A (protein)
chain: VAKTATSTITVVNFCDITITPATNRDVNVDRSANIDLSFTIRAPQRCADAGMRIKAWGEANHGQLLIKPQGGNKSAGFTLASPRFSYIPNNPANIMNGFVLTNPGVYQLGMQGSITPAIPLRPGLYEVVLNAELVTN
B1: the percent of parent (% of binding to Fn) was found to be 110.

B2: AafA, major subunit of AAF/II, on wild type EAEC 042 T18I (protein)
chain: VAKTATSTITVVNFCDIIITPATNRDVNVDRSANIDLSFTIRQPQRCADAGMRIKAWGEANHGQLLIKPQGGNKSAGFTLASPRFSYIPNNPANIMNGFVLTNPGVYQLGMQGSITPAIPLRPGLYEVVLNAELVTN
B2: the percent of parent (% of binding to Fn) was found to be 65.
